Six molecules from US20250145723A1 (MINGHUI PHARMACEUTICAL HANGZHOU, published 2025) can be followed below.

Where two headings read alike, the source gives them in different places.

One may read the EC50 as the concentration that produces a half-maximal response. What is called IC50 is the point on the concentration scale where inhibition reaches its midpoint. Broadly, the Kd is a measure of binding affinity in units of concentration. Broadly, the koff is a measure of how fast the partners let go of each other. Broadly, the kon is the rate constant with which the complex forms.

Test [1] deals with T1, recombinant mouse IGF-1R-his (mouse, UniProt Q60751 31-933).
T1 construct: not shown: his tag
Kind of test: ELISA, coated antigen 5 µg/mL. As for the experimental part:
(§1) Recombinant human, monkey and mouse IGF-1R-his antigens and human insulin receptor proteins (5 μg/mL) were added to a 96-well plate for coating overnight at 4° C. The plate was washed with PBS, and then was blocked with 1% casein at room temperature for 1 h. The nanobody-Fc fusion proteins were diluted to 2 μg/mL with 0.1% BSA/PBS, added to the antigen-coated 96-well plate, and incubated at room temperature for 1 hour. The plate was washed three times with 0.1% PBST, horseradish peroxidase-labeled anti-human Fc tag antibodies (anti-human IgG-HRP, Abcam ab6759, 1:5,000, containing 1% casein) were added and incubated at room temperature for 30 min, and the plate was washed three times with 0.1% PBST. A TMB substrate solution (Thermo, 34028) was added for color development, and the OD₄₅₀ was read using a microplate reader.
In general terms: An ELISA detects its analyte on a solid surface through an enzyme-linked reagent.

Test [2] has as its target T2, human insulin receptor protein (human, UniProt P06213-2 28-944, limits assumed).
T2 construct: also called human insulin receptor proteins
The test is described as follows: ELISA, coated antigen 5 µg/mL. How it is done:
as §1

For test [3], the target named is T3, recombinant human IGF-1R-his (human, UniProt P08069 31-932).
T3 construct: Recombinant his-tagged protein; also called hIGF-1R-his; hIGF1R-his; not shown: his tag
The test is described as follows: ELISA, coated hIGF-1R-his. How it is done:
Recombinant human IGF-1R-his antigens (2 μg/mL) were added to a 96-well plate for coating overnight at 4° C. The plate was washed three times with PBST, and then was blocked with PBST containing 5% skimmed milk powder at room temperature for 2 h. The blocking solution was discarded, the plate was washed three times with PBST, and then 30 μL of nanobody-Fc fusion proteins of different concentrations were added and incubated at room temperature for 1 h. The plate was washed 3 times with PBST, horseradish peroxidase-labeled anti-human Fc antibodies (abcam, ab97225) were added at 30 μL/well and incubated at room temperature for 1 h, and the plate was washed 3 times with PBST. TMB substrate solution was added at 30 μL/well for color development in the dark for 5-30 min, 30 μL of 2 M H₂SO₄ was added to terminate the reaction, and the OD₄₅₀ was read using a microplate reader. A curve was fit and the EC₅₀ value was calculated using Graphpad Prism software.

The target of test [4] is T3, recombinant human IGF-1R-his. The test is described as follows: competition ELISA, coated hIGF-1R-his, competitor IGF-2 (N-Avi & N-Fc). As for the experimental part:
(§2) Recombinant human IGF-1R-his antigens (5 μg/mL) were added to a 96-well plate for coating overnight at 4° C. The plate was washed 4 times with 1×TBST, and then was blocked with 2% BSA at 37° C. for 1.5 h. The plate was washed four times with 1×TBST. A volume of 50 μL of biotinylated IGF-1-Fc (2.5 μg/mL) or IGF-2 (N-Avi & N-Fc 4 μg/mL), and 50 μL of nanobody-Fc fusion proteins of different concentrations (with a starting concentration of 10 μg/mL, 2-fold serially diluted) were added to the 96-well plate and incubated at 37° C. for 1 h. The plate was washed 4 times with 1×TBST, horseradish peroxidase-labeled Streptavidin (Thermo, 21126) was added and incubated at 37° C. for 1 h, and the plate was washed 4 times with 1×TBST. TMB substrate solution was added at 200 μL/well for color development in the dark for 20 min, 50 μL of 1 M H₂SO₄ was added to terminate the reaction, and the OD₄₅₀ was read using a microplate reader. A curve was fit and the IC₅₀ value was calculated using Graphpad Prism software.

Test [5] has the same target. The test is described as follows: competition ELISA, coated hIGF-1R-his, competitor biotinylated IGF-1-Fc. How it is done: as §2
Test [6] concerns the target human IGF-1R on BaF3 cells overexpressing human IGF-1R (human) (UniProt P08069). Kind of test: cell-based or functional assay.
In test [7] the target is T3, recombinant human IGF-1R-his. Kind of test: ELISA, coated hIGF-1R-his. As for the experimental part:
The binding activity of the nanobody-Fc fusion proteins obtained after two rounds of mutant construction with the antigen proteins (recombinant human IGF-1R-His) was detected by an ELISA method: 2 μg/mL recombinant human IGF1R-His antigen proteins were added to a 96-well ELISA plate, at 30 μL/well, for coating overnight at 4° C. The plate was washed three times with PBST. PBS containing 5% skim milk powder was added for blocking at room temperature for 2 h. The plate was washed three times with PBST. The nanobody-Fc fusion proteins were serially diluted 3-fold, and the nanobody-Fc fusion proteins of different concentrations were added to each well at 30 μL/well and incubated at room temperature for 1 h. The plate was washed three times with PBST, and horseradish peroxidase-labeled anti-human Fc antibodies were added at 30 μL/well and incubated at room temperature for 50 min. The plate was washed three times with PBST. TMB substrate solution was added at 30 μL/well for color development in the dark for 1-5 min, 30 μL of 2 M hydrochloric acid was added to terminate the reaction, and the OD₄₅₀ was read using a microplate reader. Curve fitting was conducted and the EC₅₀ value was calculated using Graphpad Prism software.
The source holds these as a separate data set.

For test [8] the target is unchanged. Kind of test: SPR (BIAcore), hIGF-1R-his on CM5 chip, Test 1. As for the experimental part: The affinity of the nanobody fusion proteins to recombinant human IGF-1R was detected using a BIAcore instrument. […] The flow rate was set to 10 μL/min. The chip activation time of a mixture of EDC and NHS was the default value of 420 s. The recombinant human IGF-1R-his was coupled to 800 RU on a CM5 chip under the preset coupling mode, and unbound activated groups were blocked with ethanolamine. Two-fold serially diluted nanobody-Fc fusion proteins (five concentrations of each fusion protein were detected) were injected sequentially at a flow rate of 50 μL/min at 25° C., with an association time of 120 s and a dissociation time of 600 s. A curve was fit with a 1:1 Langmuir binding model using the BIAcore T200 analysis software to determine kinetic constants such as the association rate constant, the dissociation rate constant, and the association dissociation constant.
On the technique in general: SPR reads the build-up and loss of mass on a sensor chip optically.

Test [9] has the same target. Kind of test: competition ELISA, coated hIGF-1R-his, competitor IGF-1-Fc 1.25 µg/mL. How it is done:
Recombinant human IGF-1R-his antigens (5 μg/mL) were added to a 96-well plate for coating overnight at 4° C. The plate was washed with PBS, and then was blocked with 1% casein at room temperature for 1 h. The VHH samples were diluted 2-fold serially with 0.1% BSA/PBS, with a starting concentration of 20 μg/mL. […] The plate was washed three times with 0.1% PBST, horseradish peroxidase-labeled anti-human Fc tag antibodies (anti-human IgG-HRP, Abcam ab6759, 1:5,000, containing 1% casein) were added and incubated at room temperature for 30 min, and the plate was washed three times with 0.1% PBST. A TMB substrate solution (Thermo, 34028) was added for color development, the OD₄₅₀ was read using a microplate reader, and a curve was fit and the EC₅₀ value was calculated using Graphpad Prism software.

Test [10] has the same target. Kind of test: competition ELISA, coated hIGF-1R-his, competitor biotinylated IGF-1. As for the experimental part:
Recombinant human IGF1R-his antigen (5 μg/mL) was added to a 96-well plate for coating overnight at 4° C. The plate was washed 4 times with 1×TBST, and then was blocked with 2% BSA at room temperature for 1.5 h. The plate was washed four times with 1×TBST, and 50 μL of nanobody-Fc fusion proteins of different concentrations (with a starting concentration of 10 μg/mL, 2-fold serially diluted) and 50 μL of biotinylated IGF-1 ([…]) were added to the antigen-coated 96-well plate and incubated at 37° C. for 1 h. The plate was washed 4 times with 1×TBST, horseradish peroxidase-labeled Streptavidin (Thermo, 21126) was added and incubated at 37° C. for 1 h, and the plate was washed 4 times with 1×TBST. TMB substrate solution was added at 200 μL per well for color development in the dark for 20 min, 50 μL of 1 M H₂SO₄ was added to terminate the reaction, and the OD₄₅₀ was read using a microplate reader. A curve was fit and the IC₅₀ value was calculated using Graphpad Prism software.

T3 sequence (P08069 31-932 limits assumed): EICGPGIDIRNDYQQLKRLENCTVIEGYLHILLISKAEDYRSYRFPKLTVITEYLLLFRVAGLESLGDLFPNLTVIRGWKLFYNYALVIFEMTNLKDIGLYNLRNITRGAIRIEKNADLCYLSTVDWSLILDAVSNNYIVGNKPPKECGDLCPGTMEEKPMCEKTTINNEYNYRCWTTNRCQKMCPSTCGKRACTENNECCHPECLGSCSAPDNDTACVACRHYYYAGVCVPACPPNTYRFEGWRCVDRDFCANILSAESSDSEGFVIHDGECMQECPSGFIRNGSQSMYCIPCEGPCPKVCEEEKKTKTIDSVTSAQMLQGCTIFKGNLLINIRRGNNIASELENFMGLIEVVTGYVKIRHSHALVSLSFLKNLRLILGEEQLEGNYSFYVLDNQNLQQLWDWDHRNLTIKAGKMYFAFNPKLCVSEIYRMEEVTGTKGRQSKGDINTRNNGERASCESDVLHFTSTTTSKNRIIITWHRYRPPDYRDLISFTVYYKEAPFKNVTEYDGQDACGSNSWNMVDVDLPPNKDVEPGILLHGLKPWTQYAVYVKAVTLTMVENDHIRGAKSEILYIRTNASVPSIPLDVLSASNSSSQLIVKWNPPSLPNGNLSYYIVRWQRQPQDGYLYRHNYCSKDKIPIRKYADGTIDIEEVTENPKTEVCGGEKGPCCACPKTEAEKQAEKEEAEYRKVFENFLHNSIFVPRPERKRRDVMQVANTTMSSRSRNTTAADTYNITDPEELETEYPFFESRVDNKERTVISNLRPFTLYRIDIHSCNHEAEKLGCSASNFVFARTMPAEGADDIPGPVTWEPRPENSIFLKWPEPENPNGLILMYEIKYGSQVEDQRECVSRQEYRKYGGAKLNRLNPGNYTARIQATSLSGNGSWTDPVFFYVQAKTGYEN
Sequence of human IGF-1R on BaF3 cells overexpressing human IGF-1R (human) (P08069 31-1367): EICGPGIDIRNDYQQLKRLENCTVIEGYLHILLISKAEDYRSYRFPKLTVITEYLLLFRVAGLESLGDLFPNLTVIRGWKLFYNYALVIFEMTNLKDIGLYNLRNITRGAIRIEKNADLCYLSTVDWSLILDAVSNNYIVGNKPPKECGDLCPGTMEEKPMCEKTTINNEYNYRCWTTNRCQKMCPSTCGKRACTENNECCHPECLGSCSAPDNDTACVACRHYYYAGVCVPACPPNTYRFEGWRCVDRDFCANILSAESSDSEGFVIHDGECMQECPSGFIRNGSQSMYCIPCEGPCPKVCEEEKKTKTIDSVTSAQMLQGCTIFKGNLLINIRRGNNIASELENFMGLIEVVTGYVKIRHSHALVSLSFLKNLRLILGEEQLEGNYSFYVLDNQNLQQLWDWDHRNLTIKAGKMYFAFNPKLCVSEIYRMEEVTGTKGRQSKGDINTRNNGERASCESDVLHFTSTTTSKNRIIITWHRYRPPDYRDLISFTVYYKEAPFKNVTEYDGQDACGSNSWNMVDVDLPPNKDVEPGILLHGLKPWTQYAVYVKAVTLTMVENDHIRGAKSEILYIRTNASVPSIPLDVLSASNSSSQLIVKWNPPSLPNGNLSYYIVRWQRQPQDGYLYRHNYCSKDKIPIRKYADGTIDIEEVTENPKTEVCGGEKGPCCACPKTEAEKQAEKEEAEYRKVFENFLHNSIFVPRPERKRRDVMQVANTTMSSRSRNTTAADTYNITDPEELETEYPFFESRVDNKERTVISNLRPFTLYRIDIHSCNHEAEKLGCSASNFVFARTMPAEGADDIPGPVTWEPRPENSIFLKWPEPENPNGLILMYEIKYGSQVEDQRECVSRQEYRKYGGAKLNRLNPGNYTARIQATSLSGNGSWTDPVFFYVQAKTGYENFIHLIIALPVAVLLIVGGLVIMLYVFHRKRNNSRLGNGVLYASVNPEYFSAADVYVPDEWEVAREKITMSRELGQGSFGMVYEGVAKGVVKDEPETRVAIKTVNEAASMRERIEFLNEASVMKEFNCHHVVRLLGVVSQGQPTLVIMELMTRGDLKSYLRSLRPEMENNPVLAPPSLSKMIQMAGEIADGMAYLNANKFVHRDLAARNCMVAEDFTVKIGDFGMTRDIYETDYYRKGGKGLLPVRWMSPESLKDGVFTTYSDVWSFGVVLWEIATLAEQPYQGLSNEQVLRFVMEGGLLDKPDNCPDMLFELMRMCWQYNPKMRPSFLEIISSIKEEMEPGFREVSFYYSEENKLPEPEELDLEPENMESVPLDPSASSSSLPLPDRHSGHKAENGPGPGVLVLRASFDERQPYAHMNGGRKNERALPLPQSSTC
T2 sequence (P06213 other isoform, or with tags, fused parts or gaps limits assumed): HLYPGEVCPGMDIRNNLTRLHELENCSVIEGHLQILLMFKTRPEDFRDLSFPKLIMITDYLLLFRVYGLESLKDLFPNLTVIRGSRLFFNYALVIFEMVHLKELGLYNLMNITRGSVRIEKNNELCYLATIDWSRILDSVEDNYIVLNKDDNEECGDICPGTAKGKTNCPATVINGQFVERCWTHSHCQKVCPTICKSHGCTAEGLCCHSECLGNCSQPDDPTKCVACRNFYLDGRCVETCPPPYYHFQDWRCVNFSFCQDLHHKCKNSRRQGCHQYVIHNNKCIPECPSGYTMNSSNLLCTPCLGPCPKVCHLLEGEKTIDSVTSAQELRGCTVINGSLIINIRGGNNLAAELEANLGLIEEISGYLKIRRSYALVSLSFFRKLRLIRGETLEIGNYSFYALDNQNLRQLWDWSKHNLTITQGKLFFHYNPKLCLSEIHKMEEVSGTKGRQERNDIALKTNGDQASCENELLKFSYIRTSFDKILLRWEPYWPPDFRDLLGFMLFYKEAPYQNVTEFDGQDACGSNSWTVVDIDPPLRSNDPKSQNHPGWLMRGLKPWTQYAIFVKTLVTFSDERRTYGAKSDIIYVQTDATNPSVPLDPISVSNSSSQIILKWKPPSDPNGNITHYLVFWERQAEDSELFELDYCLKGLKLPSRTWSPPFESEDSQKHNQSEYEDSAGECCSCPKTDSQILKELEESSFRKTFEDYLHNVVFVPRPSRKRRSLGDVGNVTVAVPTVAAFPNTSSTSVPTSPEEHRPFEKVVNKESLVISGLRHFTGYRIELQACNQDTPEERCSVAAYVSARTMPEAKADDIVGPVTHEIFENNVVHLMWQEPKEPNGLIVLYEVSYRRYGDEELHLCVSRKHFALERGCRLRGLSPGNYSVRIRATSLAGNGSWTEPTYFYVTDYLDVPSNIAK
T1 sequence (Q60751 31-933 limits assumed): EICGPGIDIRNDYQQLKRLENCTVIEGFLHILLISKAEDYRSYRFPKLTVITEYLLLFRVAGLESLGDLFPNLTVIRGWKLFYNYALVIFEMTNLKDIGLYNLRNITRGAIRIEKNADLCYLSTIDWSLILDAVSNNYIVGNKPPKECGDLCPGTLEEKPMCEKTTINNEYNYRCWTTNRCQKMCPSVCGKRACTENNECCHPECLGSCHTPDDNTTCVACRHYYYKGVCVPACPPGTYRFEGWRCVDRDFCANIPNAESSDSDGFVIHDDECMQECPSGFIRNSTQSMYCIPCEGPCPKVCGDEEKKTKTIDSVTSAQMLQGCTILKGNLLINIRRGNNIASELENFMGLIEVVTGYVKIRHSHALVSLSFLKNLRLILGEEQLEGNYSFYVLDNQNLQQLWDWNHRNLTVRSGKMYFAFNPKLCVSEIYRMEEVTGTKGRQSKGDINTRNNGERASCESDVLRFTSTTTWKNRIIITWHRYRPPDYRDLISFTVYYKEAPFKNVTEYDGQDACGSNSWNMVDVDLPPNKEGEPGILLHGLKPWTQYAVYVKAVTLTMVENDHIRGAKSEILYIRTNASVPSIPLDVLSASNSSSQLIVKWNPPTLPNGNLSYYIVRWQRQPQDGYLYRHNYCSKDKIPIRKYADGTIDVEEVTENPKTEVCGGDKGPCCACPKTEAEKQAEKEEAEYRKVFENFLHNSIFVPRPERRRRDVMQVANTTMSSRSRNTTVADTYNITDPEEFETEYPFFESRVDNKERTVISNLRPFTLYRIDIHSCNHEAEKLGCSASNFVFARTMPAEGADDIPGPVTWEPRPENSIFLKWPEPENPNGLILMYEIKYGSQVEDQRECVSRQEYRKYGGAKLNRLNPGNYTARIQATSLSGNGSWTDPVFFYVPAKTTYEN

B1: 5115-H0-Fc (Fc fusion)
chain: EVQLVESGGGLVQPGGSLRLSCAASGRTFSSFVMSWFRQAPGKEREFVSAISGSGSRAYYADSVKGRFTISRDNSKNTLYLQMNSLRAEDTAVYYCAANPRRATPDYTQYAYWGQGTQVTVSS
notes: Humanized VHH-Fc; Fc not specified; not shown: Fc
As for B1, the binding result in test [1] and in test [2] was “no binding (tested: 2 µg/mL)” in each case. In addition, the EC50 in test [3] came to 0.0327 µg/mL. Also, the concentration for half-maximal inhibition (IC50) in [4] amounted to 0.177 µg/mL; in [5] it was 0.236 µg/mL.

B2: 5115-H4-M34-Fc (Fc fusion)
chain: EVQLVESGGGLVQPGGSLRLSCAASGRTFSSFVMAWFRQAPGKGLEFVSAISGSGSRARYADSVKGRFTISRDNSKNTLYLQMNSLRAEDTAVYYCAANPRRATPDLTQYAYWGQGTLVTVSS
notes: VHH-Fc; Fc not specified; not shown: Fc
On to B2, for which the IC50, inhibition of IGF-1-induced proliferation of BaF3 cells overexpressing human IGF-1R was determined as 0.00816 µg/mL in test [6] and 0.00851 µg/mL in test [6] (record 2). In [7], the concentration giving a half-maximal response (EC50) was 52 pM. Besides, the Kd in [8] came out at 86.2 pM. Further, the koff in test [8] is 0.000274 s⁻¹. The association rate constant (kon) in [8] was 3.18e+06 M⁻¹ s⁻¹. Besides, the figures for the half-maximal inhibitory concentration (IC50) in test [4] and in test [5] were 0.237 µg/mL and 0.269 µg/mL, respectively.

B3: 5115-H4-Fc (Fc fusion)
chain: EVQLVESGGGLVQPGGSLRLSCAASGRTFSSFVMSWFRQAPGKGLEFVSAISGSGSRAYYADSVKGRFTISRDNSKNTLYLQMNSLRAEDTAVYYCAANPRRATPDYTQYAYWGQGTLVTVSS
notes: as for B1
Take B3: in [3], the EC50 was determined as 0.0828 µg/mL. The values for the concentration for half-maximal inhibition (IC50) in [4] and in test [5] were 0.152 µg/mL and 0.227 µg/mL, respectively.

B4: nanobody 5115 (VHH) (VHH)
VHH: EVQLVESGGGLVQAGGSLRLSCAVSGRTFSSFVMGWFRQAPGKEREFVAAISGSGSRANYADSVKGRFTVSRDNANNTVYLQMNSLKPDDTALYYCAANPRRATPDYTQYAYWGQGTQVTVSS
With B4, the IC50 in test [9] turned out to be 0.24 µg/mL.

B5: 5115-Fc fusion protein (Fc fusion)
VHH: EVQLVESGGGLVQAGGSLRLSCAVSGRTFSSFVMGWFRQAPGKEREFVAAISGSGSRANYADSVKGRFTVSRDNANNTVYLQMNSLKPDDTALYYCAANPRRATPDYTQYAYWGQGTQVTVSS
notes: C-terminus of the VHH linked to the N-terminus of human Fc; not shown: The human Fc segment; Any hinge or linker is also unstated
In the case of B5, the binding result in test [1] and in [2] was “no binding (tested: 2 µg/mL)” each time. Also, the IC50 in [10] was found to be 0.435 µg/mL.

B6: nanobody 5666 (VHH) (VHH)
VHH: EVQLVESGGGLVQAGGSLRLSCAVSGRTFSSYVMGWFRQAPGKERELVAAISGSGSRSNYADSVKGRFTVSRDNANNTVYLQMSSLRPDDTGLYYCAANPRRATTDYTQYAYWGQGTQVTVSS
With B6, the 50% inhibitory concentration (IC50) in test [9] came out at 0.7 µg/mL.
